Assay [1] deals with T1, human CD3 on human T cells (human, UniProt P07766 23-207).
T1 construct: Natural CD3/TCR complex on T cells isolated from human donor buffy coats; The other chains of the complex (CD3γ, CD3δ, CD3ζ, polyclonal TCR) are also present on the cells
Briefly: flow cytometry on human T cells, PE anti-human IgG, GM-PE. (In general: Flow cytometry measures light scatter and fluorescence of single cells or particles in a stream.)
Description: (§2) T cells were Isolated from a buffy coat fraction of anti-coagulated human donor blood samples and resuspended in PBS/0.1% BSA/0.02% azide at 1.8×10E6 cells/mL. 50 μL of T cell suspension and 50 μL of the antibody dilutions were combined in a 96 well plate on ice, Incubated for 30 min at 4° C. and washed twice with PBS/0.1% BSA/0.02% azide. […] The cells were resuspended in 120 μL PBS/0.1% BSA/0.02% azide and PE geometric Mean Fluorescence Intensity was measured. Binding curves were analyzed using non-linear regression (sigmoidal dose-response with variable slope) using GraphPad Prism V5.04 software (GraphPad Software, San Diego, Calif., USA) and apparent affinity (KD) was derived from the concentration at half-maximal binding.

Assay [2] concerns the target T1, human CD3 on human T cells. Briefly: flow cytometry on isolated human T cells, PE anti-human IgG detection.
Description: as §2
The target in assay [3] is T2, CD3ε27-GSKa (human).
T2 construct: also called Mature CD3ε27-GSKa
T2 sequence (chain, as listed by the source limits assumed): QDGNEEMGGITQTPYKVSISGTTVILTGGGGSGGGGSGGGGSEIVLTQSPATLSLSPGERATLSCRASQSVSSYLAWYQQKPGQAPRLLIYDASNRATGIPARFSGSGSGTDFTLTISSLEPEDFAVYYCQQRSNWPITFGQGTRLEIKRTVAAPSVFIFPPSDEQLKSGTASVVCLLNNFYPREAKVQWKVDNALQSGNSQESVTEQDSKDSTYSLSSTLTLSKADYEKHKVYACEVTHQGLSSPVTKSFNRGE
Briefly: BLI (Octet HTX), UniTE antibody on anti-human Fc sensors, CD3ε27-GSKa in solution, 1:1 fit. As for the experimental part: (§1) Experiments were carried out while shaking at 1000 rpm and at 30° C.
(Biolayer interferometry detects binding as a change in optical thickness at a sensor tip.)

In assay [4] the target is T2, CD3ε27-GSKa. Put plainly: BLI (Octet), summary table repeating Table 4. Here is the method:
as §1

T1 sequence (P07766 23-207 limits assumed): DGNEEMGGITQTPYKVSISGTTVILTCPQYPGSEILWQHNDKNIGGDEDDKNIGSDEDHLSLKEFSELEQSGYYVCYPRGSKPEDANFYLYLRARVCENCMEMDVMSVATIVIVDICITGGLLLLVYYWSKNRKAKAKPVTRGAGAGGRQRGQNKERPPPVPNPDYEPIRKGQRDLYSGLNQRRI

B1: UniTE-huCD3-H1L1-H101F-LT41K (antibody, V domains shown)
VH: EVKLVESGGGLVQPGGSLRLSCAASGFTFNTYAMNWVRQAPGKGLEWVARIRSKYNNYATYYADSVKDRFTISRDDSKSSLYLQMNNLKTEDTAMYYCVRFGNFGNSYVSWFAYWGQGTLVTVSS
VL: not shown
notes: Monovalent UniBody-TE format
In the case of B1, in assay [1], the binding result is “no binding (tested: 5000 ng/mL)”. In addition, the “Tcell binding average at 5000ng/ml (Geometric MFI)” value (shortened to “Tcell binding average at 5000ng/ml”) in assay [2] worked out at 641 Geometric MFI.

B2: UniTE-huCD3-H1L1-T31M-LT41K (antibody, V domains shown)
VH: EVKLVESGGGLVQPGGSLRLSCAASGFTFNMYAMNWVRQAPGKGLEWVARIRSKYNNYATYYADSVKDRFTISRDDSKSSLYLQMNNLKTEDTAMYYCVRHGNFGNSYVSWFAYWGQGTLVTVSS
VL: not shown
notes: Monovalent UniBody-TE format
Broadly, the Kd is the constant that tells how readily two partners part at equilibrium. Read a low Kd as tighter binding. As for B2, in the assay with CD3ε27-GSKa [3], the Ka worked out at 5.1e+06 M⁻¹. Besides, the Kd with CD3ε27-GSKa [3] and with CD3ε27-GSKa [4] was 200 nM in each case. Besides, the “Tcell binding average at 5000ng/ml” value in assay [2] stood at 1920 Geometric MFI.

B3: UniTE-huCD3-H1L1-Y114M-LT41K (antibody, V domains shown)
VH: EVKLVESGGGLVQPGGSLRLSCAASGFTFNTYAMNWVRQAPGKGLEWVARIRSKYNNYATYYADSVKDRFTISRDDSKSSLYLQMNNLKTEDTAMYYCVRHGNFGNSYVSWFAMWGQGTLVTVSS
VL: not shown
notes: Monovalent UniBody-TE format
In turn, B3 registered a Ka in the assay with CD3ε27-GSKa [3] of 1.3e+07 M⁻¹. In addition, the Kd with CD3ε27-GSKa [3] and with CD3ε27-GSKa [4] was 76 nM in each case. The “Tcell binding average at 5000ng/ml” value in assay [2] came out at 3830 Geometric MFI.

B4: UniTE-huCD3-H1L1-T31P-LT41K (antibody, V domains shown)
VH: EVKLVESGGGLVQPGGSLRLSCAASGFTFNPYAMNWVRQAPGKGLEWVARIRSKYNNYATYYADSVKDRFTISRDDSKSSLYLQMNNLKTEDTAMYYCVRHGNFGNSYVSWFAYWGQGTLVTVSS
VL: not shown
notes: Monovalent UniBody-TE format
As to B4, in the assay with CD3ε27-GSKa [3], the Ka was 2e+07 M⁻¹ and the Kd came to 49 nM. Also, the affinity with CD3ε27-GSKa [4], expressed as Kd, was 49 nM. Further, in assay [2], the “Tcell binding average at 5000ng/ml” value came to 4290 Geometric MFI.

B5: UniTE-huCD3-H1L1-Y114V-LT41K (antibody, V domains shown)
VH: EVKLVESGGGLVQPGGSLRLSCAASGFTFNTYAMNWVRQAPGKGLEWVARIRSKYNNYATYYADSVKDRFTISRDDSKSSLYLQMNNLKTEDTAMYYCVRHGNFGNSYVSWFAVWGQGTLVTVSS
VL: not shown
For B5, in the assay with CD3ε27-GSKa [3], the Ka was determined as 1.3e+07 M⁻¹ and the Kd worked out at 75 nM. Also, the Kd in the assay with CD3ε27-GSKa [4] was 75 nM. The “Tcell binding average at 5000ng/ml” value in assay [2] came to 6020 Geometric MFI.

(Values after patent US20220380464A1 (Genmab, published 2022).)
